Results on one molecule are retold here after patent US20250122303A1 (HUMMINGBIRD BIOSCIENCE PTE, published 2025).

Where a chain is given by its changes, count along the chain named.

Test [1] addresses T1, His-tagged human HER3 (human, UniProt P21860 20-643).
T1 construct: Antigen of the BLI experiments and of the HER2-Fc dimerisation ELISA; also called HER3 His; not shown: His tag
Description: BLI (Octet QK384), antibody captured on AHC sensors, His-tagged human HER3 in solution, without NRG1. Here is the method: Binding of anti-HER3 antibodies to human HER3 was evaluated by BLI. Briefly, anti-Human IgG Capture (AHC) sensors (ForteBio) were loaded with anti-HER3 IgG antibodies (25 nM). Kinetic measurements were performed in absence or presence of NRG1. NRG1 was used at 1:1 molar ratio with HER3 wherein the complex was allowed to form at RT for 2 h. […] All measurements were performed at 25° C. with agitation at 1000 rpm. Sensorgrams were referenced for buffer effects and then analyzed using the Octet QK384-software (ForteBio). Kinetic responses were globally fitted using a one-site binding model to obtain values for association (Kₒₙ), dissociation (Koff) rate constants and the equilibrium dissociation constant (KD).

The target of test [2] is T1, His-tagged human HER3. Description: BLI (Octet QK384), antibody on anti-human IgG capture tips, His-tagged human HER3 in solution, global one-site fit. Put shortly:
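The antibodies, in IgG1 format at 25 nM, sat on anti-human IgG capture tips, and HER3 binding was followed at 25° C under 1000 rpm agitation.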

The target of test [3] is T1, His-tagged human HER3. The test can be described thus: plate ELISA dimerisation assay; HER2-Fc coated, constant HER3 His and NRG, antibody varied; blocked partner HER2-Fc. Here is the method:
Plate-based ELISA dimerisation assays were carried out according to standard protocols. Plates were coated with 1 μg/ml HER2-Fc protein. […] Plates were then washed and incubated for 1 hour with secondary anti-HIS HRP antibody. […] The absorbance was read at 450 nm.

For test [4], the target named is T1, His-tagged human HER3. Description: BLI (Octet QK384), antibody on anti-human IgG capture tips, His-tagged human HER3 in solution, global 1:1 fit, R^2 = 0.9902, kon Error 1.12E+04; Response 0.1471 / 0.2882 / 0.3968 / 0.5458 at 35 / 69 / 139 / 278 nM. Here is the method:
(§1) The anti-HER3 antibody clones in IgG1 format were analysed for binding affinity to human HER3. Bio-Layer Interferometry (BLI) experiments were performed using the Octet QK384 system (ForteBio). anti-Human IgG Capture (AHC) Octet sensor tips (Pall ForteBio, USA) were used to anti-HER3 antibodies (25 nM). All measurements were performed at 25° C. with agitation at 1000 rpm. […] Sensograms were referenced for buffer effects and then fitted using the Octet QK384 user software (Pall ForteBio, USA). Kinetic responses were subjected to a global fitting using a one site binding model to obtain values for association (Kₒₙ), dissociation (Koff) rate constants and the equilibrium dissociation constant (KD). Only curves that could be reliably fitted with the software (R²>0.90) were included in the analysis.

For the next test, the target named is T2, hCD16a (human, UniProt P08637 17-208, limits assumed).
T2 construct: also called human CD16a
The test can be described thus: BLI; after 15 days at 40 °C/80% RH.

The next test deals with T3, human HER3 polypeptide (human, UniProt P21860 20-643).
T3 construct: Recombinant antigen of the ELISAs; also called human HER3 (Sino Biological Inc.); human antigen HER3
Description: BLI; after 15 days at 40 °C/80% RH.

The target in test [5] is T4, His-tagged FcγRIIIa (V158) (human, UniProt P08637 17-208).
T4 construct: not shown: His tag
Description: Bio-Layer Interferometry (determined as described in Example 7).

For the next test, the target named is T5, FcgRIIA (H167) (human, UniProt P12318).
T5 construct: recombinant; also called CD32A; hFcγRIIa167H
T5 sequence (receptor, looked up): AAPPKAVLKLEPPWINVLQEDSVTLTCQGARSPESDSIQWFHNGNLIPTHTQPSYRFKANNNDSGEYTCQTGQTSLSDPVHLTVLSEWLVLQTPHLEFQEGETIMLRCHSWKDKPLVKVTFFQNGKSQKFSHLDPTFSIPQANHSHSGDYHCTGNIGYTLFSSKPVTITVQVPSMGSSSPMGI
The description is as above.

Another test addresses T6, FcgRIIA (R167) (human, UniProt P12318).
T6 construct: recombinant; also called CD32A; hFcγRIIa167R
T6 sequence (receptor, looked up): T5 sequence (receptor, looked up) with H132R
The test is described as above.

The next test addresses T7, FcRn (human, UniProt P55899).
T7 construct: recombinant; also called human FcRn; gene FCGRT (so in the source)
Described as above.

In test [6] the target is T8, human HER3 expressed on cells (HEK293 HER3 O/E cells) (human, UniProt P21860 20-1342).
T8 construct: Also used here for HER3 on U2OS cells of the PathHunter kit and on cancer cell lines; also called HEK293 cells transfected with vector encoding human HER3; human HER3-expressing cells
The test can be described thus: flow cytometry on HEK293T HER3 O/E cells, 10 ug antibody as printed, FITC-conjugated anti-Fc secondary. Here is the method:
The cells were washed with buffer (PBS with 2 mM EDTA and 0.5% BSA) and resuspended in FITC-conjugated anti-FC antibody (Invitrogen, USA) at 10 μg/ml for 20 min at 4° C. Cells were washed again and resuspended in 200 μL of FACS flow buffer (PBS with 5 mM EDTA) for flow cytometric analysis using MACSQuant 10 (Miltenyi Biotec, Germany). Unstained WT and transfected HEK293 cells were included in the analysis as negative controls. After acquisition, all raw data were analyzed using Flowlogic software. Cells were gated using forward and side scatter profile percentage of positive cells was determined for native and overexpressing cell populations.

The target in test [7] is T1, His-tagged human HER3. Description: BLI (Octet QK384), antibody on anti-human IgG capture tips, His-tagged human HER3 35-278 nM, global 1:1 fit; kdis Error 1.15E-04. Here is the method:
as §1

B1: 10D1F.FcA (anti-HER3 clone 10D1_c89 IgG1) (antibody)
heavy: not shown
light: DIQMTQSPSSVSASVGDRVTITCKASQIVGSNVAWYQQKPGKAPEPLIYSASYLYSGVPSRFSGSGSGTDFTLTISSLQPEDFATYYCQQYSSHPLTFGQGTKLEIKRTVAAPSVFIFPPSDEQLKSGTASVVCLLNNFYPREAKVQWKVDNALQSGNSQESVTEQDSKDSTYSLSSTLTLSKADYEKHKVYACEVTHQGLSSPVTKSFNRGEC
notes: also called 10D1F.A; HMBD-001
Consider B1, for which the Kd is under 0.001 nM in the test with His-tagged human HER3 [1]; 0.0726 nM in the test with His-tagged human HER3 [2]; 265 nM in the test with hCD16a; under 0.001 nM with human HER3 polypeptide; 986 nM in test [5]; 1800 nM in the test with FcgRIIA (H167). The values for the Kd with FcgRIIA (R167) and with FcRn were 976 nM and 47.6 nM, respectively. Further, the values for the koff with His-tagged human HER3 [1] and in the test with His-tagged human HER3 [7] were under 1e-07 s⁻¹ and 2.16e-05 s⁻¹, respectively. The results for the on-rate (kon) with His-tagged human HER3 [1] and with His-tagged human HER3 [4] were 199000 M⁻¹ s⁻¹ and 297000 M⁻¹ s⁻¹, respectively. Also, in the test with His-tagged human HER3 [3], the IC50 was determined as 78.8 nM. The “% Parent (HER3 positive)” value in test [6] was determined as 73.3%.
